Changes are numbered by the printed parent chain. Entries after “also recorded” stand apart in the source; their conditions may differ.
Legend:
[1] = target: T1, soluble recombinant human CD39 protein (Homo sapiens, UniProt P49961); assay: Inhibition of the enzymatic activity of soluble CD39 (Cell Titer Glo); type: biochemical
T1 construct: made in house; host or cells: CHO cells
T1 sequence (P49961 with tags, fused parts or gaps): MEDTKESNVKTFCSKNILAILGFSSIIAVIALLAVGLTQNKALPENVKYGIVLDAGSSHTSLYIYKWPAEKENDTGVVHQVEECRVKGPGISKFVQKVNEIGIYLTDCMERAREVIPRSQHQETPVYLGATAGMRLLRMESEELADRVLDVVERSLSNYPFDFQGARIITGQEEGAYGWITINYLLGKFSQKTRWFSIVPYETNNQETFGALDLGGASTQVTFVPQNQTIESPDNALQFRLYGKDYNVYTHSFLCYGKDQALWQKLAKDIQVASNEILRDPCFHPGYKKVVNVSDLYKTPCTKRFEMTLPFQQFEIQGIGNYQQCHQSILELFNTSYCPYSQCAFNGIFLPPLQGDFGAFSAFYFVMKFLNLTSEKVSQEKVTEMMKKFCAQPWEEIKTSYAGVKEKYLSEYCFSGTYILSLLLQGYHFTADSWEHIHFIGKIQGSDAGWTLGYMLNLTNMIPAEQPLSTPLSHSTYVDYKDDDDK
Method: The inhibition by antibodies of the enzymatic activity of soluble CD39 protein produced was evaluated using Cell Titer Glo™ (Promega, reference G7571) that allows assessment of ATP hydrolysis through use of a reagent that generates a luminescent signal proportional to the amount of ATP present. In this way, inhibition of the soluble-CD39-meidatd ATP hydrolysis can be assessed. Briefly, dose ranges of anti-CD39 antibodies from 100 μg/ml to 6×10^−3 μg/ml were incubated with 400 ng/ml of soluble recombinant human CD39 protein having the amino acid sequence described in the Methods section (SEQ ID NO: 45), for 1 h at 37° C. 20 μM ATP was added to the plates for 30 additional minutes at 37° C. before addition of CTG (Cell Titer Glo) reagent. Emitted light was quantified using an Enspire™ luminometer after a short incubation period of 5 min in the dark. Anti-CD39 antibody efficacy was determined by comparing emitted light in presence of antibody with ATP alone (maximal light emission) and ATP together with soluble CD39 protein (minimal light emission).

[2] = target: T2, CD39 mutants transfected in Hek-293T cells (Homo sapiens, UniProt P49961, E142K/M139A/R138A); assay: Epitope mapping: binding to CD39 mutants by flow cytometry; details: mutant 19: R138A, M139A, E142K; vs wild-type CD39
T2 construct: expressed in transfected cells; host or cells: HEK-293T cells
T2 sequence (P49961 1-510 R138A/M139A/E142K): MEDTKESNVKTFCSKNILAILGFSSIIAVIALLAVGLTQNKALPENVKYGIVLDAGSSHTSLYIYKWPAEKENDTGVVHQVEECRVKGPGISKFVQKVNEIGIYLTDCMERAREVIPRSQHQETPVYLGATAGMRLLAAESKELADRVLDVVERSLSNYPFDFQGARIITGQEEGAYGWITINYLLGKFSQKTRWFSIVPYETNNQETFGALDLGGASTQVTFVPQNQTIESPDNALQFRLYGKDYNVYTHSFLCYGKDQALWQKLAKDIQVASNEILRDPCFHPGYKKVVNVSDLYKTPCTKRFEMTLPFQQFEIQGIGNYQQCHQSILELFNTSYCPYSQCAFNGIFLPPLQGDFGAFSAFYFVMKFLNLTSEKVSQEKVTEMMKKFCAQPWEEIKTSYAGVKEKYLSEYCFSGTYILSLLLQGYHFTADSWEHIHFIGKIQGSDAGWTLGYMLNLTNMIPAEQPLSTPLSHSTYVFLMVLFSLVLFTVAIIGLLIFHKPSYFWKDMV
Method: (§1) CD39 mutants were generated by PCR. The sequences amplified were run on agarose gel and purified using the Macherey Nagel PCR Clean-Up Gel Extraction kit (reference 740609). The purified PCR products generated for each mutant were then ligated into an expression vector, with the ClonTech InFusion system. The vectors containing the mutated sequences were prepared as Miniprep and sequenced. After sequencing, the vectors containing the mutated sequences were prepared as Midiprep using the Promega PureYield™ Plasmid Midiprep System. HEK293T cells were grown in DMEM medium (Invitrogen), transfected with vectors using Invitrogen's Lipofectamine 2000 and incubated at 37° C. in a CO2 incubator for 48 hours prior to testing for transgene expression. The targeted amino acid mutations in the table 1 below are shown using numbering of SEQ ID NO: 1.
(§2) In order to define the epitopes of anti-CD39 antibodies, we designed CD39 mutants defined by substitutions of amino acids exposed at the molecular surface over the surface of CD39. Mutants were transfected in Hek-293T cells, as shown in the table 1, using numbering of SEQ ID NO: 1.
(§3) Dose-ranges of I-394 (10-2.5-0.625-0.1563-0.0391-0.0098-0.0024-0.0006 μg/ml) are tested on the 20 generated mutants by flow cytometry. […] Mutant 5 contains amino acid substitutions at residues Q96, N99, E143 and R147.
(§4) Mutants were transfected in Hek-293T cells, as shown in the table 1, using numbering of SEQ ID NO: 1. Dose-ranges of antibodies I-394 were tested on the 20 mutants by flow cytometry. […] Mutant 19 includes substitutions at residues R138, M139 and E142. The core epitope of I-394 thus includes one or more (or all of) residues R138, M139 and E142.
(§5) Mutants were transfected in Hek-293T cells, as shown in the table 1, using numbering of SEQ ID NO: 1.Dose-ranges of test antibodies (10-2.5-0.625-0.1563-0.0391-0.0098-0.0024-0.0006 μg/ml) are tested on the 20 generated mutants by flow cytometry.

[3] = target: T3, CD39 mutants transfected in Hek-293T cells (Homo sapiens, UniProt P49961, E143A/N99A/Q96A/R147E); assay: as above; details: mutant 5: Q96A, N99A, E143A, R147E; vs wild-type CD39
T3 construct: expressed in transfected cells; host or cells: HEK-293T cells
T3 sequence (P49961 1-510 Q96A/N99A/E143A/R147E): T2 sequence (P49961 1-510 R138A/M139A/E142K) with Q96A, N99A, A138R, A139M, K142E, E143A, R147E
Method: as §1, §2, §3, §4, §5

maximum inhibition achieved, soluble CD39 [1]: 74.9% | relative potency of inhibition of soluble CD39 (FIG. 2B) ([1]; ranking among I-394, I-395, I-396): greatest potency | binding to cells expressing mutant 19 of CD39 [2]: complete loss of binding | binding to cells expressing mutant 5 of CD39 [3]: strongly reduced binding
Substance: I-394: anti-CD39 antibody, VH SEQ ID NO: 6, VL SEQ ID NO: 7; human IgG1 Fc with L234A/L235E/G237A/A330S/P331S
inhibition of the enzymatic activity of soluble CD39 protein ([1]; result in words, 400 ng/ml sCD39, 20 μM ATP): strong inhibition; also recorded: inhibits

From patent US11578136B2, “Compositions and methods for treating cancer” (INNATE PHARMA, priority 2017, dated 2023)
